Nine molecules from patent publication US20140147868A1 (published 2014) can be followed below.

For orientation: Kd means the constant that tells how readily two partners part at equilibrium. Higher therefore signals a looser complex. One may read the koff as the rate constant with which the complex falls apart. Usually kon stands for the rate constant with which the complex forms.

Sequences and labels used below:
B4: monoclonal antibody TC2 (antibody, mouse IgG1, V domains shown)
VH: QVQLKQSGPGLLQPSQSLSITCTVSGFSLTYYGVHWVRQSPVKGLEWLGVIWSGGDTDYDTTFISRLSISKDNSKGQVFFKMTSLQTDDTAIYYCARGRTYGIHFDYWGQGTTLTVSS
VL: DIVMSQSPSSLAVSVGEKVTMSCKSSQSLFNSRTRKNYLAWYQQKPGQSPKVLIYWASTRESGVPDRFTGSGSGTDFTLTISSVQAEDLAIYYCKQFYDLWTFGGGTKLEIKR
notes: also called mAb TC2; ECACC 02110742

Positions of bridges follow the written chain, without caps; N, C: chain ends. No end group written: not given here.

Test [1] addresses T1, monoclonal antibody 3C4.
T1 construct: also called mAb 3C4; 3C4 (3CY)
In words: phage ELISA, coated mAb 3C4, 10^8 phagemid per well. The method, then:
(§1) Microtitre plates were coated with 100 μL, 1 μg/mL mAb 3C4 or unrelated control antibody in PBS over night at 4 C. Remaining binding sites were blocked with 20 mg/mL bovine serum albumin (BSA) in PBS for 1 h. Some wells were only coated with BSA. Monoclonal packaged phagemids were added at a concentration of 10¹⁰ to 10⁸ cfu per well in PBS and incubated for 1 h. Preparations of packaged phagemids were centrifuged to remove aggregates. Wells were washed 6 times with PBS containing 0.1% Tween-20 and 3 times with PBS. For detection of bound phages 100 μL of horse-radish peroxidase (HRP) conjugated anti-[…] antibody (e.g. Pharmacia) diluted 1/5000 in PBS was added to each well and incubated for 1 h at ambient temperature. ELISA plates were washed 5 times with PBS containing 0.1% Tween-20 and 3 times with PBS. The chromogenic substrate o-Phenyldiamine in citric acid, pH 4.0 supplemented with H₂O₂ was added and the color generating reaction was stopped after 2-5 min by addition of 2 M H₂SO₄.
Target sequence in this assay (VH, as listed by the source, chain 1 of 2): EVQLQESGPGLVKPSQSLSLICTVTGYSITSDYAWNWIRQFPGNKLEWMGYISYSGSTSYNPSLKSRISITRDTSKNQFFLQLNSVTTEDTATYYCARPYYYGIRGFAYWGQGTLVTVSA
Target sequence in this assay (VL, as listed by the source, chain 2 of 2): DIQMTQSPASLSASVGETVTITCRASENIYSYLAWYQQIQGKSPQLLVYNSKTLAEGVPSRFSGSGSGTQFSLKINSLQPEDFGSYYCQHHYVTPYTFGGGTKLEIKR

Test [2] addresses T1, monoclonal antibody 3C4. As to the kind of experiment: phage ELISA, coated mAb 3C4, 10^9 phagemid per well. As to the method: as §1
Background: An ELISA detects its analyte on a solid surface through an enzyme-linked reagent.
Target sequence in this assay (VH, as listed by the source, chain 1 of 2): as the sequence (VH, as listed by the source, chain 1 of 2) above
Target sequence in this assay (VL, as listed by the source, chain 2 of 2): as the sequence (VL, as listed by the source, chain 2 of 2) above

The target in test [3] is T1, monoclonal antibody 3C4. As to the kind of experiment: SPR, 3C4 immobilised, phagemid injected. The method, then:
(§2) The carboxylated surface of the a dextran coated CM5 chip (Biacore, Sweden) was activated according to protocol supplied by the manufacturer. In short 0.05M N-hydroxysuccinimide (NHS)/0.2 M N-ethyl-N′-[3-(dimethylamino)propyl]carbodiimide hydrochloride (EDC), was injected over the carboxylated chip at 10 μL/min for 7 min, then 50 μg/mL rabbit anti-mouse IgG polyclonal antibody in 10 mM acetate buffer, pH 5.0 is injected at 10 μL/min for 7 min, and finally the chip is blocked by injection of 1 M ethanolamine at 10 μL/min for 7 min. Immobilization of mouse monoclonal antibodies on the dextran coated chip was performed in the same way.
(§3) Antibodies were covalently immobilized on a dextran coated CM5 chip as described in Example 2. Phages were diluted 10-fold in HBS-EP and injected at 10 μL/min for 3 min. The amounts of phagemid bound was recorded in real time and expressed in response units (RU). To evaluate blocking by holoTC, 1 μM of holoTC was injected at 10 μL/min for 5 min prior to the injection of phagemids at 10 μL/min for 3 min. Inhibition was computed as the number of RU of phagemid bound to 3C4 with pretreatment with holoTC divided with the number of RU bound without pretreatment, times 100.
(In general: SPR reads the build-up and loss of mass on a sensor chip optically.)
Target sequence in this assay (VH, as listed by the source, chain 1 of 2): as the sequence (VH, as listed by the source, chain 1 of 2) above
Target sequence in this assay (VL, as listed by the source, chain 2 of 2): as the sequence (VL, as listed by the source, chain 2 of 2) above

The target of test [4] is T1, monoclonal antibody 3C4. In words: phage ELISA, coated mAb 3C4, 10^10 phagemid per well. The method, then: as §1
In test [5] the target is T1, monoclonal antibody 3C4. In words: SPR, phagemid bound to 3C4 after 1 uM holoTC (competitor). As to the method:
as §2, §3
Target sequence in this assay (VH, as listed by the source, chain 1 of 2): as the sequence (VH, as listed by the source, chain 1 of 2) above
Target sequence in this assay (VL, as listed by the source, chain 2 of 2): as the sequence (VL, as listed by the source, chain 2 of 2) above

The target in test [6] is T1, monoclonal antibody 3C4. As to the kind of experiment: SPR, mAb 3C4 immobilised, phagemid injected. The method, then:
as §2, §3
Target sequence in this assay (VH, as listed by the source): as the sequence (VH, as listed by the source, chain 1 of 2) above

Test [7] addresses T1, monoclonal antibody 3C4. In words: SPR, inhibition of phagemid binding to 3C4 by 1 uM holoTC (competitor). The method, then: as §2, §3
Target sequence in this assay (VH, as listed by the source, chain 1 of 2): as above
Target sequence in this assay (VL, as listed by the source, chain 2 of 2): as the sequence (VL, as listed by the source, chain 2 of 2) above
Test [8] addresses T2, monoclonal antibody 3-9.
T2 construct: Antibody from State University of New York; also called mAb 3-9
In words: SPR, mAb 3-9 immobilised, phagemid injected. The method, then: as §2, §3

For test [9], the target named is B4. In words: SPR, mAb immobilised, phagemid injected (Table 5; 1 RU). The method, then: as §2, §3
Test [10] concerns the target T3, human holotranscobalamin (holoTC) (human, UniProt P20062 19-427, cobalamin bound (holo form, non-covalent)).
T3 construct: Recombinant human holoTC in the SPR work; also called holo-TCII
T3 chain: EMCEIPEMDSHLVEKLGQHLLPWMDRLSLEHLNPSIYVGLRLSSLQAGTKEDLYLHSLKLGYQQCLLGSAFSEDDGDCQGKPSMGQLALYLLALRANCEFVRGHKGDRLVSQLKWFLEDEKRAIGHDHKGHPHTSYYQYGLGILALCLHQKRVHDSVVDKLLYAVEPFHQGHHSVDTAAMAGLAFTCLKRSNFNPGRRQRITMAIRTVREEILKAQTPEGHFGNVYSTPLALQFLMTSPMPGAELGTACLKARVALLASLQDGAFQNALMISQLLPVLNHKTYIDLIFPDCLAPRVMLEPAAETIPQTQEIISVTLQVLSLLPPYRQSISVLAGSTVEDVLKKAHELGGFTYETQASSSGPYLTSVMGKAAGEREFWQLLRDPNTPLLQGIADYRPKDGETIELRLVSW
In words: SPR, scFv injected over immobilised holoTC. The method, then:
Selected scFv antibodies were evaluated by surface plasmon resonance essentially as described in Example 2. Purified antibody preparations were injected over a chip with immobilized holoTC. The holoTC chip was prepared by binding holoTC to a chip prepared as described in 2.1 or by binding biotinylated holoTC on a streptavidin coated SA chip (Biacore, Sweden).

The target of test [11] is T3, human holotranscobalamin (holoTC). As to the kind of experiment: SPR (BIAcore), scFv immobilised.
Test [12] shares this target. As to the kind of experiment: SPR (BIAcore), scFv immobilised; head read as 10^-4.
Test [13] concerns the target T4, human apotranscobalamin (apoTC) (human, UniProt P20062 19-427).
T4 construct: Same chain as holoTC without cobalamin; also called apo-TCII
T4 chain: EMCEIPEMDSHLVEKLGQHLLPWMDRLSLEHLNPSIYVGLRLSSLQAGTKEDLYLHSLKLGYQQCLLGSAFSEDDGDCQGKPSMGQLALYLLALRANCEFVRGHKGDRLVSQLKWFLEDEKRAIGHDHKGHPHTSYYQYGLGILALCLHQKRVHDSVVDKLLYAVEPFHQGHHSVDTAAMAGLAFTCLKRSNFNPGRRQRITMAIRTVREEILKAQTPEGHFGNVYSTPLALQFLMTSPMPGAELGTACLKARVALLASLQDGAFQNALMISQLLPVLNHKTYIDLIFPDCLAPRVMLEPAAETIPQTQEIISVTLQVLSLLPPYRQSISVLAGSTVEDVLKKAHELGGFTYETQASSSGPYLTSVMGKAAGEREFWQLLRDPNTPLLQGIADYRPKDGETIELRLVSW
Described as above.

For test [14], the target named is T3, human holotranscobalamin (holoTC). In words: SPR (BIAcore), antibody immobilised; head read as 10^-4.
Test [15] concerns the target T4, human apotranscobalamin (apoTC). The description is as above.
For test [16], the target named is T3, human holotranscobalamin (holoTC). In words: SPR (Biacore), mAb on chip, TC injected.
The target is the same in test [17]. In words: SPR (Biacore); Kd values for holoTC.
For test [18] the target is unchanged. In words: SPR; holoTC against apoTC.
Test [19] has the same target. As to the kind of experiment: SPR (BIAcore), antibody immobilised.
The target in test [20] is T4, human apotranscobalamin (apoTC). In words: SPR (BIAcore), antibody immobilised.

For CSFRYLWDQDRCS (disulfide 1-12 (inferred); also: displayed on phage (phagemid)) [phagemid CS1-6p (phage-displayed disulfide cyclized 13 mer peptide)], the “ELISA (absorbance units)” value came out at 0.406 absorbance units in [1], 0.664 absorbance units in test [2] and 1.06 absorbance units in test [4]. Besides, the “Phage bound (RU)” value in test [3] is 24 RU. Moreover, the “Block by holoTC (RU)” value in test [5] turned out to be 3 RU. In addition, the entries for the “phagemid bound (RU)” value in [6] and in test [8] were 45 RU and 0 RU, respectively. In test [7], the “Inhibition (%)” value amounted to 88%. Further, in test [9], the binding result is recorded as “no binding”.

B1: phagemid CS1-31p (phage-displayed disulfide cyclized 13 mer peptide) (peptide)
peptide: CSFFYSLCYCWCS
modifications: disulfide (positions not given here); also: four Cys, disulfide pairing not given here
notes: also called CSI-31p
For B1, the “ELISA (absorbance units)” value in [1] was found to be 0.152 absorbance units; in test [2], 0.165 absorbance units; in test [4], 0.298 absorbance units. In addition, the “Phage bound (RU)” value in [3] was 42 RU. The “Block by holoTC (RU)” value in test [5] turned out to be 5 RU. Moreover, the “phagemid bound (RU)” value in [6] was 42 RU; in [8], 0 RU. For the same molecule, in [7], the “Inhibition (%)” value stood at 88%.

B2: mutated scFv 3C4 clone 3.9G2 (scFv)
scFv: EVQLQESGPGLVKPSLSLSLICTVTGYSIASDYTWNWIRQFPGNKLEWMGYISYSGSTSYNPSLKSRISITRDTSKNQFFLQLNSVTTEDTATYYCARPYYYGIRGFAYWGQGTLVTVSAGGGGSGGGGSGGGGSDIQMTQSPASLSASVGETVTITCRASENIYSYLAWYQQIQGKSPQLLVYNSKTLTEGVPSRFSGSGSGTQFSLKINSLQPEDFGSYYCQHHYVTPYTFGGGTKLEIKR
notes: A190T stands in the next printed row (r19)
Turning to B2, in test [10], the Kd was 150 nM, the koff was found to be 0.00059 s⁻¹ and the kon amounted to 3800 M⁻¹ s⁻¹.

On to CSGLYPWDMFRCS (disulfide 1-12 (inferred); also: displayed on phage (phagemid)) [phagemid CS1-9p (phage-displayed disulfide cyclized 13 mer peptide)], for which the entries for the “ELISA (absorbance units)” value in test [1], in test [2] and in test [4] were 0.259 absorbance units, 0.539 absorbance units and 0.769 absorbance units, respectively. Moreover, the “Phage bound (RU)” value in test [3] was determined as 35 RU. Also, the “Block by holoTC (RU)” value in test [5] amounted to 1 RU. In [7], the “Inhibition (%)” value stood at 87%.

B3: single chain antibody fragment TC2_ScFv (scFv)
scFv: QVQLKQSGPGLLQPSQSLSITCTVSGFSLTYYGVHWVRQSPVKGLEWLGVIWSGGDTDYDTTFISRLSISKDNSKGQVFFKMTSLQTDDTAIYYCARGRTYGIHFDYWGQGTTLTVSSGGGGSGGGGSGGGGSDIVMSQSPSSLAVSVGEKVTMSCKSSQSLFNSRTRKNYLAWYQQKPGQSPKVLIYWASTRESGVPDRFTGSGSGTDFTLTISSVQAEDLAIYYCKQFYDLWTFGGGTKLEIKR
notes: A C-terminal tag may be present; also called scFv TC2
Consider B3, for which, in test [11], the Ka is 3e+06 M⁻¹ and the kon is 4000 M⁻¹ s⁻¹. In [12], the koff turned out to be 0.0015 s⁻¹. This molecule also showed a koff in test [13] of 0.0015 s⁻¹.

For the molecule CSGLYPWDYFMCS (disulfide 1-12 (inferred); also: displayed on phage (phagemid)) [phagemid CS1-29p (phage-displayed disulfide cyclized 13 mer peptide)], the “ELISA (absorbance units)” value in [1] was 0.156 absorbance units; in [2], 0.189 absorbance units; in [4], 0.335 absorbance units. For the same molecule, in test [3], the “Phage bound (RU)” value was found to be 20 RU. The “Block by holoTC (RU)” value in test [5] was found to be 3 RU. Moreover, the “Inhibition (%)” value in [7] was 85%.

For B4, the figures for the koff in [14] and in [15] were 0.0004 s⁻¹ and 0.0015 s⁻¹, respectively. Also, the Kd in test [16] and in test [17] was 1 to 5 nM each time. For the same molecule, in test [18], the “holo/apo Specificity (-fold)” value was 1 -fold. The Ka in [19] amounted to 2.5e+08 M⁻¹; in [20], 7e+07 M⁻¹. In addition, the kon in test [19] and in test [20] was 100000 M⁻¹ s⁻¹ in each case.

B5: phagemid CS1-2p (phage-displayed disulfide cyclized 13 mer peptide) (peptide)
peptide: CSLFYLWDQDRCS
modifications: disulfide 1-12 (inferred); also: displayed on phage (phagemid), coat fusion not given here
On to B5, for which the “ELISA (absorbance units)” value was 0.245 absorbance units in test [1], 0.224 absorbance units in [2] and 0.287 absorbance units in test [4]. Further, in test [3], the “Phage bound (RU)” value was 4 RU.

Regarding CSFRYQWDMFRCS (disulfide 1-12 (inferred); also: displayed on phage (phagemid)) [phagemid CS1-11p (phage-displayed disulfide cyclized 13 mer peptide)], the “ELISA (absorbance units)” value is 0.348 absorbance units in test [1], 0.559 absorbance units in test [2] and 0.645 absorbance units in test [4]. In [3], the “Phage bound (RU)” value stood at 32 RU. In test [5], the “Block by holoTC (RU)” value turned out to be 0 RU. The figures for the “phagemid bound (RU)” value in [6] and in test [8] were 32 RU and 0 RU, respectively. The “Inhibition (%)” value in test [7] is 100%.
